Patent US20250043002A1 (Regeneron, published 2025)
Blank lines part the entries; values can stand above or below the binder they belong to.

Columns and labels:
[1] = molecular target: T1, human CD28 on cells (endogenous on Jurkat/NFkB-Luc cells; human primary CD4+ T cells) (human, UniProt P10747 19-220); test: cell-based or functional assay
[2] = molecular target: T2, human PD-L1 expressed on cells (HEK293/hCD20/hPSMA/hPD-L1; WSU-DLCL2/hPD-L1) (human, UniProt Q9NZQ7 19-290); test: flow cytometry, HEK293/hCD20/hPSMA/hPD-L1 cells
T2 construct: whole, on cells; also called human programmed death ligand-1

[3] = molecular target: T1, human CD28 on cells (endogenous on …); test: flow cytometry, Jurkat/NFkB-Luc cells (endogenous CD28)
[4] = molecular target: T3, hPD-L1-mFc: hPD-L1 extracellular domain (amino acids F19-T239) expressed with the Fc portion of mouse IgG2a … (human; mouse, UniProt Q9NZQ7 19-239); test: blocking ELISA, 0.7 nM hPD-L1-mFc on plate-coated hPD1-hFc
T3 construct: range 19-239; not shown: Fc portion of mouse IgG2a, amino acids E98-K330

[5] = molecular target: T1, human CD28 on cells (endogenous on …); test: cell-based or functional assay; remark: listed apart in the source
[6] = molecular target: human CD28 expressed with a C-terminal murine Fc tag (hCD28.mFc) (human); test: SPR Biacore 25 C, hCD28.mFc captured by anti-mFc, antibody injected

T2 sequence (Q9NZQ7 19-290): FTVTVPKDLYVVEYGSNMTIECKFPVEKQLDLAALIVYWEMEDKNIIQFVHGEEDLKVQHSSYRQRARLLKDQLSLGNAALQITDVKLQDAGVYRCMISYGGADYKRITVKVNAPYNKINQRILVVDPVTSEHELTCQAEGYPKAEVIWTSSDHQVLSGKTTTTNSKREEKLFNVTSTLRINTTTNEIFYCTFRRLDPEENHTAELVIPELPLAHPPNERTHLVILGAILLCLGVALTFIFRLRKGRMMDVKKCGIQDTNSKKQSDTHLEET
T3 sequence (Q9NZQ7 19-239 limits assumed): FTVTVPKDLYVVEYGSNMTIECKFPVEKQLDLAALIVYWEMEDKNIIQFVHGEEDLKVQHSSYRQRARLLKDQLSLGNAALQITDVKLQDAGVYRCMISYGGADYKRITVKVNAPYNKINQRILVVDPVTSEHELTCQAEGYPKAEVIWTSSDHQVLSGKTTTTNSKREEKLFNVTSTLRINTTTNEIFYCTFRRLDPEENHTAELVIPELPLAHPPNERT

B1: mAb14216 (antibody, V domains shown)
VH: EVQLVESGGGLVQPGGSLRLSCAASGFTFSRNNMHWVRQAPGKGLEYVSGISSNGGRTYYADSVKGRFTISRDNSKNTLYLQMGGLRAADMAVYFCTRDDELLSFDYWGQGTLVTVSS
VL: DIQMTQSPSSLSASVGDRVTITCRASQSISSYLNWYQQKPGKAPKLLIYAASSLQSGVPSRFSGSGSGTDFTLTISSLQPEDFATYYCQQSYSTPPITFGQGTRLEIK
notes: Bivalent parental antibody; also called parental bivalent anti-CD28 antibody; CD28 bivalent control antibody
IL2 release EC50, CD4+ T cells + HEK293/hCD20/hPSMA + CD20×CD3 [1]: 9.54 nM | IL2 release MAX (RLU), CD4+ T cells + HEK293/hCD20/hPSMA [1]: 3040 RLU | IL2 release MAX (RLU), CD4+ T cells + HEK293/hCD20/hPSMA + CD20×CD3 [1]: 25600 RLU | IL2 release MAX (RLU), CD4+ T cells + HEK293/hCD20/hPSMA/hPD-L1 [1]: 2860 RLU | IL2 release MAX (RLU), CD4+ T cells + HEK293/hCD20/hPSMA/hPD-L1 + CD20×CD3 [1]: 3620 RLU | Fold Change (max MFI over secondary antibody alone) [2]: 1.2 fold | Max gMFI [2]: 1800 gMFI | binding result [2]: no binding | EC50 [3]: 9.3 nM | Fold Change (max MFI over secondary antibody alone) [3]: 60.3 fold | Max gMFI [3]: 25000 gMFI | % Blocking at 100 nM mAb [4]: 1%

B2: mAb14193 (antibody, V domains shown)
VH: EVQLVESGGGLVQPGGSLRLSCAASGFTFSTYAMTWVRQAPGKGLEWVSFISGSGDNTYYADSVKGRFTISRDNSKNTLYLQMNSLRADDSAIYHCAKDSGYCSSGGCSLYFYYGMDVWGQGTTVTVSS
VL: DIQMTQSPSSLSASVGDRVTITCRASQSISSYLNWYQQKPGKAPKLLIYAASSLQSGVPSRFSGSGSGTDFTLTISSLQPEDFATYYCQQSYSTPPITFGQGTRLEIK
notes: as for B1
IL2 release EC50, CD4+ T cells + HEK293/hCD20/hPSMA + CD20×CD3 [1]: 24.9 nM | IL2 release MAX (RLU), CD4+ T cells + HEK293/hCD20/hPSMA [1]: 3110 RLU | IL2 release MAX (RLU), CD4+ T cells + HEK293/hCD20/hPSMA + CD20×CD3 [1]: 33600 RLU | IL2 release MAX (RLU), CD4+ T cells + HEK293/hCD20/hPSMA/hPD-L1 [1]: 3070 RLU | IL2 release MAX (RLU), CD4+ T cells + HEK293/hCD20/hPSMA/hPD-L1 + CD20×CD3 [1]: 4720 RLU | Fold Change (max MFI over secondary antibody alone) [2]: 3 fold | Max gMFI [2]: 4700 gMFI | binding result [2]: no binding | EC50 [3]: 21 nM | Fold Change (max MFI over secondary antibody alone) [3]: 42.5 fold | Max gMFI [3]: 18000 gMFI | % Blocking at 100 nM mAb [4]: 6%

Now those with a lower EC50 [3], led by results:

NFkB-luciferase EC50, Jurkat/NFkB-Luc + HEK293/hCD20/hPSMA/hPD-L1 + CD20×CD3 [5]: 0.028 nM | NFkB-luciferase MAX (RLU), Jurkat/NFkB-Luc + HEK293/hCD20/hPSMA [5]: 11400 RLU | NFkB-luciferase MAX (RLU), Jurkat/NFkB-Luc + HEK293/hCD20/hPSMA + CD20×CD3 [5]: 425000 RLU | NFkB-luciferase MAX (RLU), Jurkat/NFkB-Luc + HEK293/hCD20/hPSMA/hPD-L1 [5]: 16700 RLU | NFkB-luciferase MAX (RLU), Jurkat/NFkB-Luc + HEK293/hCD20/hPSMA/hPD-L1 + CD20×CD3 [5]: 3.6e+06 RLU | IL2 release MAX (RLU), CD4+ T cells + HEK293/hCD20/hPSMA [1]: 5480 RLU | IL2 release MAX (RLU), CD4+ T cells + HEK293/hCD20/hPSMA + CD20×CD3 [1]: 33700 RLU | IL2 release MAX (RLU), CD4+ T cells + HEK293/hCD20/hPSMA/hPD-L1 [1]: 2870 RLU | IL2 release MAX (RLU), CD4+ T cells + HEK293/hCD20/hPSMA/hPD-L1 + CD20×CD3 [1]: 165000 RLU | EC50 [3]: 7.5 nM | Fold Change (max MFI over secondary antibody alone) [3]: 90.4 fold | Max gMFI [3]: 28000 gMFI | 90 nM mAb Bind (RU) [6]: 39.4 RU | Kd [6]: 24.5 nM | koff [6]: 0.00326 s⁻¹ | kon [6]: 133000 M⁻¹ s⁻¹ | t1/2 [6]: 3.5 min
B4: REGN6194 (bispecific antibody, human IgG4 S228P, kappa)
heavy 1: QVQLVQSGTEVKKPGASVKVSCKASGYTFTAYYMHWVRQAPGQGLDWMGWISPNSGFTNYAQKFQGRVTMTRDTSINTFYMELSGLRSDDTAVYYCAREGSTHHNSFDPWGQGTLVTVSSASTKGPSVFPLAPCSRSTSESTAALGCLVKDYFPEPVTVSWNSGALTSGVHTFPAVLQSSGLYSLSSVVTVPSSSLGTKTYTCNVDHKPSNTKVDKRVESKYGPPCPPCPAPPVAGPSVFLFPPKPKDTLMISRTPEVTCVVVDVSQEDPEVQFNWYVDGVEVHNAKTKPREEQFNSTYRVVSVLTVLHQDWLNGKEYKCKVSNKGLPSSIEKTISKAKGQPREPQVYTLPPSQEEMTKNQVSLTCLVKGFYPSDIAVEWESNGQPENNYKTTPPVLDSDGSFFLYSRLTVDKSRWQEGNVFSCSVMHEALHNHYTQKSLSLSLGK
heavy 2: QVQLQESGPGLVKPSETLSLTCTVSGGSISSYYWSWIRQPPGKGLEWIGYIYYSGITHYNPSLKSRVTISVDTSKIQFSLKLSSVTAADTAVYYCARWGVRRDYYYYGMDVWGQGTTVTVSSASTKGPSVFPLAPCSRSTSESTAALGCLVKDYFPEPVTVSWNSGALTSGVHTFPAVLQSSGLYSLSSVVTVPSSSLGTKTYTCNVDHKPSNTKVDKRVESKYGPPCPPCPAPPVAGPSVFLFPPKPKDTLMISRTPEVTCVVVDVSQEDPEVQFNWYVDGVEVHNAKTKPREEQFNSTYRVVSVLTVLHQDWLNGKEYKCKVSNKGLPSSIEKTISKAKGQPREPQVYTLPPSQEEMTKNQVSLTCLVKGFYPSDIAVEWESNGQPENNYKTTPPVLDSDGSFFLYSRLTVDKSRWQEGNVFSCSVMHEALHNRFTQKSLSLSPGK
light: not shown
notes: also called PD-L1×CD28; anti-PD-L1 × anti-CD28 bispecific antibody

NFkB-luciferase EC50, Jurkat/NFkB-Luc + HEK293/hCD20/hPSMA [5]: 5.69 nM | NFkB-luciferase EC50, Jurkat/NFkB-Luc + HEK293/hCD20/hPSMA + CD20×CD3 [5]: 0.0514 nM | NFkB-luciferase EC50, Jurkat/NFkB-Luc + HEK293/hCD20/hPSMA/hPD-L1 + CD20×CD3 [5]: 0.0875 nM | NFkB-luciferase MAX (RLU), Jurkat/NFkB-Luc + HEK293/hCD20/hPSMA [5]: 73200 RLU | NFkB-luciferase MAX (RLU), Jurkat/NFkB-Luc + HEK293/hCD20/hPSMA + CD20×CD3 [5]: 649000 RLU | NFkB-luciferase MAX (RLU), Jurkat/NFkB-Luc + HEK293/hCD20/hPSMA/hPD-L1 [5]: 60800 RLU | NFkB-luciferase MAX (RLU), Jurkat/NFkB-Luc + HEK293/hCD20/hPSMA/hPD-L1 + CD20×CD3 [5]: 596000 RLU | IL2 release EC50, CD4+ T cells + HEK293/hCD20/hPSMA + CD20×CD3 [1]: 0.116 nM | IL2 release EC50, CD4+ T cells + HEK293/hCD20/hPSMA/hPD-L1 + CD20×CD3 [1]: 2.67 nM | IL2 release MAX (RLU), CD4+ T cells + HEK293/hCD20/hPSMA [1]: 2910 RLU | IL2 release MAX (RLU), CD4+ T cells + HEK293/hCD20/hPSMA + CD20×CD3 [1]: 64400 RLU | IL2 release MAX (RLU), CD4+ T cells + HEK293/hCD20/hPSMA/hPD-L1 [1]: 2860 RLU | IL2 release MAX (RLU), CD4+ T cells + HEK293/hCD20/hPSMA/hPD-L1 + CD20×CD3 [1]: 38800 RLU | EC50 [3]: 0.73 nM | Fold Change (max MFI over secondary antibody alone) [3]: 101 fold | Max gMFI [3]: 43000 gMFI
B3: mAb14226 (antibody, V domains shown)
VH: QVQLQESGPGLVKPSETLSLTCTVSGGSISSYYWSWIRQPPGKGLEWIGYIYYSGITHYNPSLKSRVTISVDTSKIQFSLKLSSVTAADTAVYYCARWGVRRDYYYYGMDVWGQGTTVTVSS
VL: not shown
notes: as for B1
